Changes are numbered by the printed parent chain. Names and notes keep the numbering of the source.
Legend:
[1] = molecular target: Itk SH3-SH2 (Itk 32), Q03526
[2] = molecular target: full-length wild-type Lck
[3] = test system: Tec SH3-SH2 (Tec 32)
[4] = test system: Tec SH3
[5] = molecular target: Grb2 SH2 domain
[6] = molecular target: T1, Itk SH3, Q03526
T1 chain: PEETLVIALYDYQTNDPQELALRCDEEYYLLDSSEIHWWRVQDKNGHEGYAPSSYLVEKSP

[7] = molecular target: T2, Itk SH3-Linker (Itk 3Linker), Q03526
T2 chain: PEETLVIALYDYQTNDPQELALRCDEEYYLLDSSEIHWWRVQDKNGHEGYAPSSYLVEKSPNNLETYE

[8] = molecular target: N-terminal Phosphatidylinositol 3-Kinase (p85α) SH2 domain (PI3K SH2)
[9] = molecular target: T3, PLCγ1 -Y783-SH3, P10686
T3 chain: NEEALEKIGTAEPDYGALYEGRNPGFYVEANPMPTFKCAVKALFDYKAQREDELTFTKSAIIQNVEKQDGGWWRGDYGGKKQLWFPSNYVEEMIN

[10] = molecular target: T4, PLCγ1 SH2C -Y783-, P10686
T4 chain: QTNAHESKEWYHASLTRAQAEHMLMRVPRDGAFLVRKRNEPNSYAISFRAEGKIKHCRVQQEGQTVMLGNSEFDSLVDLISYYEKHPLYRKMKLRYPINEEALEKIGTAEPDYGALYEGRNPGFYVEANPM

[11] = molecular target: T5, free Itk SH2 domain, Q03526
T5 chain: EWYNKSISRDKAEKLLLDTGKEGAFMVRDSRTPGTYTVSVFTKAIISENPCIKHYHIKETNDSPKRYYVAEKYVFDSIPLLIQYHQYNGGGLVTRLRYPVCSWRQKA

[12] = molecular target: T6, free PLCγ1 SH2C domain, P10686
T6 chain: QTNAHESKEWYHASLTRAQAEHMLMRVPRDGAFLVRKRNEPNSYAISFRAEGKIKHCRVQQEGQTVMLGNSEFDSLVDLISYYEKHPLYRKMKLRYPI

[13] = molecular target: T7, Peptide B
T7 chain: EQEDEPEGIYGVLF

[14] = molecular target: T8, biotinylated PLCγ1 SH2C-Peptide B fusion protein, P10686
T8 chain: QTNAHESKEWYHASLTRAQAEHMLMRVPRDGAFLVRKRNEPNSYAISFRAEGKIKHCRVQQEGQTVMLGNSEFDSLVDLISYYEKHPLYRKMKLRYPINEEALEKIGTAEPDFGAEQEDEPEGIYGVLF

Chain of Grb2 SH2 domain (chain, as listed by the source): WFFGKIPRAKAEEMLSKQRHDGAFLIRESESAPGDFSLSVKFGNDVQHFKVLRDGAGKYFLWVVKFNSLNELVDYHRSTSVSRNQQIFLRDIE

B1: FLAG-tagged Itk kinase domain (Itk KD) (protein)
chain: VIQPSELTFVQEIGSGQFGLVHLGYWLNKDKVAIKTIQEGAMSEEDFIEEAEVMMKLSHPKLVQLYGVCLEQAPICLVFEFMEHGCLSDYLRSQRGLFAAETLLGMCLDVCEGMAYLEKACVIHRDLAARNCLVGENQVIKVSDFGMTRFVLDDQYTSSTGTKFPVKWASPEVFSFSRYSSKSDVWSFGVLMWEVFSEGKIPYENRSNSEVVEDISTGFRLYKPRLASCHVYQIMNHCWKEKPEDRPPFSQLLSQLAEIAEAGL
Q: For B1, which “phosphorylation of Itk 32 by the isolated Itk kinase domain (anti-pY180 blot)” value [1] is on record?
A: The Itk catalytic fragment leads to substrate phosphorylation

B2: Catalytically inactive (K390R) Itk kinase domain (KD) (protein)
chain: B1 chain with K29R
Q: How did the “phosphorylation of Itk Y511 by Lck (Btk phosphoY551 antibody blot)” value [2] turn out when B2 was run?
A: phosphorylation of the Itk kinase domain alone (on Y511) by Lck is very inefficient

B3: FLAG-tagged Tec full-length enzyme (enzyme, UniProt P42680 1-631, looked up, species assumed)
chain: MNFNTILEEILIKRSQQKKKTSPLNYKERLFVLTKSMLTYYEGRAEKKYRKGFIDVSKIKCVEIVKNDDGVIPCQNKYPFQVVHDANTLYIFAPSPQSRDLWVKKLKEEIKNNNNIMIKYHPKFWTDGSYQCCRQTEKLAPGCEKYNLFESSIRKALPPAPETKKRRPPPPIPLEEEDNSEEIVVAMYDFQAAEGHDLRLERGQEYLILEKNDVHWWRARDKYGNEGYIPSNYVTGKKSNNLDQYEWYCRNMNRSKAEQLLRSEDKEGGFMVRDSSQPGLYTVSLYTKFGGEGSSGFRHYHIKETTTSPKKYYLAEKHAFGSIPEIIEYHKHNAAGLVTRLRYPVSVKGKNAPTTAGFSYEKWEINPSELTFMRELGSGLFGVVRLGKWRAQYKVAIKAIREGAMCEEDFIEEAKVMMKLTHPKLVQLYGVCTQQKPIYIVTEFMERGCLLNFLRQRQGHFSRDVLLSMCQDVCEGMEYLERNSFIHRDLAARNCLVSEAGVVKVSDFGMARYVLDDQYTSSSGAKFPVKWCPPEVFNYSRFSSKSDVWSFGVLMWEVFTEGRMPFEKYTNYEVVTMVTRGHRLYQPKLASNYVYEVMLRCWQEKPEGRPSFEDLLRTIDELVECEETFGR
modifications: full-length FLAG tag
Q: How did the “phosphorylation on Y187 in an in vitro kinase assay” value [3] turn out when B3 was run?
A: only substrates that contain both the site of phosphorylation (Y180 for Itk, Y187 for Tec, Y223 for Btk, and Y783 for PLCγ1) and the adjacent SH2 domain are phosphorylated by the Tec kinases

Q: And the “phosphorylation on Y187 in an in vitro kinase assay” value [4]?
A: are not phosphorylated by the Tec and Btk kinases

B4: Catalytically inactive (K390R) Itk SH2-kinase domain (2KD) (protein)
chain: EWYNKSISRDKAEKLLLDTGKEGAFMVRDSRTPGTYTVSVFTKAIISENPCIKHYHIKETNDSPKRYYVAEKYVFDSIPLLIQYHQYNGGGLVTRLRYPVCSWRQKAPVTAGLRYGKWVIQPSELTFVQEIGSGQFGLVHLGYWLNRDKVAIKTIQEGAMSEEDFIEEAEVMMKLSHPKLVQLYGVCLEQAPICLVFEFMEHGCLSDYLRSQRGLFAAETLLGMCLDVCEGMAYLEKACVIHRDLAARNCLVGENQVIKVSDFGMTRFVLDDQYTSSTGTKFPVKWASPEVFSFSRYSSKSDVWSFGVLMWEVFSEGKIPYENRSNSEVVEDISTGFRLYKPRLASCHVYQIMNHCWKEKPEDRPPFSQLLSQLAEIAEAGL
Q: With B4 as the protein, how does the “phosphorylation of Itk Y511 by Lck (Btk phosphoY551 antibody blot)” value [2] read?
A: Lck phosphorylation of the SH2-kinase fragment of Itk proceeds readily

B5: FLAG-tagged Itk full-length (FLItk) enzyme (protein)
chain: MNNFILLEEQLIKKSQQKRRTSPSNFKVRFFVLTKASLAYFEDRHGKKRTLKGSIELSRIKCVEIVKSDISIPCHYKYPFQTLVYLQVVHDNYLLYVFAPDCESRQRWVLTLKEETRNNNSLVSKYHPNFWMDGRWRCCSQLEKPAVGCAPYDPSKNASKKPLPPTPEDNRRSFQEPEETLVIALYDYQTNDPQELALRCDEEYYLLDSSEIHWWRVQDKNGHEGYAPSSYLVEKSPNNLETYEWYNKSISRDKAEKLLLDTGKEGAFMVRDSRTPGTYTVSVFTKAIISENPCIKHYHIKETNDSPKRYYVAEKYVFDSIPLLIQYHQYNGGGLVTRLRYPVCSWRQKAPVTAGLRYGKWVIQPSELTFVQEIGSGQFGLVHLGYWLNKDKVAIKTIQEGAMSEEDFIEEAEVMMKLSHPKLVQLYGVCLEQAPICLVFEFMEHGCLSDYLRSQRGLFAAETLLGMCLDVCEGMAYLEKACVIHRDLAARNCLVGENQVIKVSDFGMTRFVLDDQYTSSTGTKFPVKWASPEVFSFSRYSSKSDVWSFGVLMWEVFSEGKIPYENRSNSEVVEDISTGFRLYKPRLASCHVYQIMNHCWKEKPEDRPPFSQLLSQLAEIAEAGL
Q: Which “phosphorylation of Itk 32 and PLCγ1 SH2C -Y783- by full-length Itk” value [5] does the source give for B5 here?
A: two different control SH2 domains (derived from PI3K and Grb2) do not inhibit the phosphorylation of the substrates even at large molar excess

Q: And the “phosphorylation on Y180 in an in vitro kinase assay” value (shortened to “phosphorylation on Y180”) [6]?
A: the isolated SH3 domain does not serve as a substrate for full length Itk

Q: And the “phosphorylation on Y180” value [7]?
A: Only Itk fragments that contain the SH2 domain and Y180 are phosphorylated by Itk

Q: What about the “phosphorylation on Y180” value [1] of the same protein?
A: only substrates that contain both the site of phosphorylation (Y180 for Itk, Y187 for Tec, Y223 for Btk, and Y783 for PLCγ1) and the adjacent SH2 domain are phosphorylated by the Tec kinases

Q: What about the “phosphorylation of Itk 32 and PLCγ1 SH2C -Y783- by full-length Itk” value [8] of the same protein?
A: two different control SH2 domains (derived from PI3K and Grb2) do not inhibit the phosphorylation of the substrates even at large molar excess

Q: And the “phosphorylation on Y783 in an in vitro kinase assay” value [9]?
A: is not phosphorylated by full length Itk

Q: What about the “phosphorylation on Y783 in an in vitro kinase assay” value [10] of the same protein?
A: only substrates that contain both the site of phosphorylation (Y180 for Itk, Y187 for Tec, Y223 for Btk, and Y783 for PLCγ1) and the adjacent SH2 domain are phosphorylated by the Tec kinases

Q: And the “autophosphorylation of Tyr 180 within full length Itk” value [11]?
A: autophosphorylation at this site is greatly diminished upon addition of free Itk SH2 domain

Q: What about the “initial velocity of peptide B phosphorylation by full length Itk” value [11] of the same protein?
A: do not change significantly with increasing concentrations of Itk SH2 domain

Q: What about the “phosphorylation of Itk 32 substrate on Y180 by full-length Itk (anti-pY180 blot)” value [11] of the same protein?
A: free Itk SH2 domain competes with the Itk 32 substrate

Q: What about the “phosphorylation of PLCγ1 SH2C -Y783- substrate by full-length Itk (anti-pY783 blot)” value [12] of the same protein?
A: The PLCγ1 SH2 domain competes with the PLCγ1 substrate in a similar manner

B6: FLAG-tagged Itk LKD enzyme (protein)
chain: CSWRQKAPVTAGLRYGKWVIQPSELTFVQEIGSGQFGLVHLGYWLNKDKVAIKTIQEGAMSEEDFIEEAEVMMKLSHPKLVQLYGVCLEQAPICLVFEFMEHGCLSDYLRSQRGLFAAETLLGMCLDVCEGMAYLEKACVIHRDLAARNCLVGENQVIKVSDFGMTRFVLDDQYTSSTGTKFPVKWASPEVFSFSRYSSKSDVWSFGVLMWEVFSEGKIPYENRSNSEVVEDISTGFRLYKPRLASCHVYQIMNHCWKEKPEDRPPFSQLLSQLAEIAEAGL
Q: For B6, which Km [13] is on record?
A: 87 µM for Peptide B alone

Q: And the Km [14]?
A: 5.64 µM for the SH2-Peptide B fusion

Q: What about the “fold increase in substrate affinity against Peptide B alone” value [14] of the same protein?
A: exhibiting a 15-fold increase in substrate affinity

Q: And the “kcat/Km against Peptide B alone” value [14]?
A: Peptide B is a better substrate by 7-fold (kat/Km) when tethered to the SH2 domain of PLCγ1
